{"source": "patent US8013186B2", "about": "“Haloalkyl containing compounds as cysteine protease inhibitors” (Virobay, Inc., priority 2004, dated 2011)", "origin": "cited, not measured here", "settings": "in clinical trials"}
{"substance": "OKT3: murine monoclonal antibody directed towards CD-3 domain of activated T-cells", "values": [{"measurement": "patients administered OKT3 who produce antibodies versus the therapy", "value": "20-40%"}]}
